Source: the DeepSol protein solubility set

Assay: soluble on expression in E. coli; label from the status in PepcDB or PDB records

MSLASISPQGSMSLLSQLEIERLKASSNSQLYKLFRNCCLAVLNAGSHTDSSADIYDSYKDFEVNIIRRERGIKLELIEPPEEAFVDGEVIVGIRELLESVLRDILFTGERYSETDLEHADSATLTHVVFDILRNARTLRPQEEPNMVVCWGGHSINEIEYKYTKDVGYHIGLRGLNICTGCGPGAMKGPMKGATIGHAKQRVEGGRYLGLTEPGIIAAEPPNPIVNELVILPDIEKRLEAFVRCAHGIVIFPGGAGTAEELLYLLGILMHPDNQRQSLPVILTGPASSRDYFEALDEFIGATIGDEARQLYKIIIDDPAAVAQHMHAGMAAVKQYRRDSGDAYYFNWTLKINEEFQRPFSPTHENVAALNLHPDQPKERLAADLRRAFSAIVAGNVKDEGIRQIRKNGVFTIHGEQSLMKRLDELLRAFVEQGRMKLPGSVYNPCYKVITDEGHHHHHH
soluble on expression in E. coli: soluble

MAHHHHHHMLCHNVASKVSELLLNRMNCPFLQNVQVRNHKIIKPRNIIKLWKINKGDEVKVISGKDKGKIGEVLSCDKFRNMVKVKGCNLRKIYLDNKFVYIEKKIHYSNVQLIDDFLKTNTKVCIRYTDDNQVIRISKKSGIVIPWPSKTNKEDEFDDVEENPLDTPPQEALKKTYDYKADVKFMNILRQTVNKYNRELS
soluble on expression in E. coli: not soluble

MRGSHHHHHHTDPINKDIYQALQQLIPNEKIKVDEPLKRYTYTKTGGNADFYITPTKNEEVQAVVKYAYQNEIPVTYLGNGSNIIIREGGIRGIVISLLSLDHIEVSDDAIIAGSGAAIIDVSRVARDYALTGLEFACGIPGSIGGAVYMNAGAYGGEVKDCIDYALCVNEQGSLIKLTTKELELDYRNSIIQKEHLVVLEAAFTLAPGKMTEIQAKMDDLTERRESKQPLEYPSCGSVFQRPPGHFAGKLIQDSNLQGHRIGGVEVSTKHAGFMVNVDNGTATDYENLIHYVQKTVKEKFGIELNREVRIIGEHPKESLQPSLIS
soluble on expression in E. coli: soluble

MFSILLPTWNNLALLKLCVQSIRAHSAHDHQIIVHVNDGSDGTLAWVREQGLDHTHSPGNVGICLAVNESAMLARHDYIVYLNDDMVCCPGWDTALLRRLDTLDTDLFMLSGTMIEPVDTGNPCVVVGNYGRDADTFDAARLLADVPRLARGDWLGATWPPTLVHRRWWFKLGGYSSELTPGMSSDNDFSMKLWHAGCRIFLGAGDSLVYHFQCKSTGKVKKNDGRRQFLNKWGLSQSTFDKYFLRRGTPAGADWRLPEPELTSALRWDLRRNDLTRRLRPGVPVLLEHHHHHH
soluble on expression in E. coli: soluble

MAAGFGRCCRVLRSISRFHWRSQHTKANRQREPGLGFSFEFTEQQKEFQATARKFAREEIIPVAAEYDKTGEYPVPLIRRAWELGLMNTHIPENCGGLGLGTFDACLISEELAYGCTGVQTAIEGNSLGQMPIIIAGNDQQKKKYLGRMTEEPLMCAYCVTEPGAGSDVAGIKTKAEKKGDEYIINGQKMWITNGGKANWYFLLARSDPDPKAPANKAFTGFIVEADTPGIQIGRKELNMGQRCSDTRGIVFEDVKVPKENVLIGDGAGFKVAMGAFDKTRPVVAAGAVGLAQRALDEATKYALERKTFGKLLVEHQAISFMLAEMAMKVELARMSYQRAAWEVDSGRRNTYYASIAKAFAGDIANQLATDAVQILGGNGFNTEYPVEKLMRDAKIYQIYEGTSQIQRLIVAREHIDKYKN
soluble on expression in E. coli: soluble

TPARDWNYTAPDGTVVEGWYYLPPQFDPSKKYPMLVYYYGGTSPINRTLEGHYSLAMYAAQGYVVYTLNPSGTTGYGQEYAARHVNAWGDRTADEIIGATKEFIRTHSFVNGKKVGCFGASYGGFMTQYLQTKTDIFAAAVSHAGISSISNYWGSGYWGMGYSTVASTDSYPWNNPDLYAGHSPLFRADKIHTPLLLLHGSVDTNVPTAESVNLYNALKILGREVEFIEFTEQDHFILEPERRIRWTNSICAWFARWL
soluble on expression in E. coli: not soluble

MGHHHHHHSHMGCDGGTIPKRHELVKGPKKVEKVDKDAELVAQWNYCTLSQEILRRPIVACELGRLYNKDAVIEFLLDKSAEKALGKAASHIKSIKNVTELKLSDNPAWEGDKGNTKGDKHDDLQRARFICPVVGLEMNGRHRFCFLRCCGCVFSERALKEIKAEVCHTCGAAFQEDDVIVLNGTKEDVDVLKTRMEERRLRANREKKTKKPKAAESVSKPDVSEEAPGPSKVKTGKPEEASLDSREKKTNLAPKSTAMNESSSGKAGKPPCGATKRSIADSEESEAYKSLFTTHSSAKRSKEESAHWVTHTSYCF
soluble on expression in E. coli: not soluble
